Starred links: 1 amine or outer side, 2 acyl side, 3 side chain; linkers in the order of their positions; H or OH if unused. Positions of bridges follow the written chain, without caps; N, C: chain ends. Non-standard residues stand in square brackets, D forms with d. Groups on a side chain read outwards from the residue. *: point of attachment. Trp(1-Me) = Cn1cc(C[C@H](N)C(=O)O)c2ccccc21; C18 diacid = O=C(O)CCCCCCCCCCCCCCCCC(=O)*; C16 diacid = O=C(O)CCCCCCCCCCCCCCC(=O)*; γGlu = O=C(O)[C@H](CCC(=O)[*:2])N[*:1]; hCys = N[C@@H](CCS)C(=O)O; AEEA = NCCOCCOCC(=O)O; Sar = CNCC(=O)O
Biological target: Human C3 (human, UniProt P01024 23-1663)
Experiment: cell-based or functional assay

Human C3, sequence (P01024 23-1663 limits assumed): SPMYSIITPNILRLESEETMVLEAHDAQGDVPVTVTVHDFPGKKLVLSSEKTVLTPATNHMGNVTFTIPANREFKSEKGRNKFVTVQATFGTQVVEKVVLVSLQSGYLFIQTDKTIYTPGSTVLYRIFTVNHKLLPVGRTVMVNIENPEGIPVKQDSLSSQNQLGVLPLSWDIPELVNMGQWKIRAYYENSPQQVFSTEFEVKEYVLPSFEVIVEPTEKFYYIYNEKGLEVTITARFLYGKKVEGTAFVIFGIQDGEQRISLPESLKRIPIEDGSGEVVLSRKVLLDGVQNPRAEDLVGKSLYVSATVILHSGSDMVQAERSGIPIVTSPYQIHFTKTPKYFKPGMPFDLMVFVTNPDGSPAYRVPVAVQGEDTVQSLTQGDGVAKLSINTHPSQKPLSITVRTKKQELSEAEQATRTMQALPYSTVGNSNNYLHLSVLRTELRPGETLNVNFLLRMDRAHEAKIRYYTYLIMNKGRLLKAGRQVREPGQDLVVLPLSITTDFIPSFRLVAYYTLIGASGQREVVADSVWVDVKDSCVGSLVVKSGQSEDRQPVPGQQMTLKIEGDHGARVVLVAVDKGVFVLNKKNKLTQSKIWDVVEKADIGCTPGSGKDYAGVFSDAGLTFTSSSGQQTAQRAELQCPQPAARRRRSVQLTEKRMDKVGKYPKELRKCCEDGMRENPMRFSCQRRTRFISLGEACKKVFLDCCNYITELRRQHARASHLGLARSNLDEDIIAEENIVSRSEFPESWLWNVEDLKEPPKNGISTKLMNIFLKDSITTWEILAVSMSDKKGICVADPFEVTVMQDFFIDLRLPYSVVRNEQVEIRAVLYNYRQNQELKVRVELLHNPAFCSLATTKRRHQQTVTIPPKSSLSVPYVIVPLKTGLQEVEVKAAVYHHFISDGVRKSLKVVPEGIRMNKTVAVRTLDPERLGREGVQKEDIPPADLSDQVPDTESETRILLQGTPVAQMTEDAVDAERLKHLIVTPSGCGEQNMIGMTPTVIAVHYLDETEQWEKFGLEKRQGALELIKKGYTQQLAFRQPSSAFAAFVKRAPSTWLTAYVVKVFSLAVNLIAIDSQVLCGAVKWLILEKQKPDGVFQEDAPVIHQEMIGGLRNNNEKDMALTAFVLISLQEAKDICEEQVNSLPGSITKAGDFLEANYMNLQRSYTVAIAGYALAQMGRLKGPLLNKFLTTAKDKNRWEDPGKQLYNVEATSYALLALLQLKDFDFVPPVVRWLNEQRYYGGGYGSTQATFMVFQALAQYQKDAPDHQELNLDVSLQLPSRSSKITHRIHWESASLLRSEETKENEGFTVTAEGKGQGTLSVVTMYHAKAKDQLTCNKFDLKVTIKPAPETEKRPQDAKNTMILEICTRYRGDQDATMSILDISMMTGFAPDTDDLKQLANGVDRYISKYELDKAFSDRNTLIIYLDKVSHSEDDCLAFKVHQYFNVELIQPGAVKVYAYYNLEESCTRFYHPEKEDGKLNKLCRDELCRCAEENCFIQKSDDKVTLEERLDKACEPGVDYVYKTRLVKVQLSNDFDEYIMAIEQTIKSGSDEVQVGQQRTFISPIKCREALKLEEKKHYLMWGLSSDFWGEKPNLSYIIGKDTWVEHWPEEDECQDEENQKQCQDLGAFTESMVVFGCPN

Binder	IC50[nM], inhibition of hemolysis	IC50, CP hemolysis
EGSAYAIWQDWGEHRCGEKEK (not fully specified; N-acetyl; C-terminal amide; delta-cystathionine (Ctt2) thioether bridge A6-hCys16 (hCys written C); W8 is 1-Me-Trp; G17 is Sar; E20 is γGlu; K21 side chain bears [17-carboxy-heptadecanoyl][γGlu][Peg3][Peg3]) [Compound 159]	< 100 nM	
Ac-SEFAI[Trp(1-Me)]QDWGEHR[hCys]TEGE[AEEA]ESK([γGlu-C18 diacid])-OH (thioether 4-14) [Compound 163]	< 100 nM	
Ac-GEFAI[Trp(1-Me)]QEWGEHR[hCys][Sar]EGE[AEEA]ESK([γGlu-Gly-γGlu-C18 diacid])-NH2 (thioether 4-14; SMILES CC[C@H](C)[C@@H]1NC(=O)[C@@H](NC(=O)[C@H](Cc2ccccc2)NC(=O)[C@H](CCC(=O)O)NC(=O)CNC(C)=O)CSCC[C@@H](C(=O)N(C)CC(=O)N[C@@H](CCC(=O)O)C(=O)NCC(=O)N[C@@H](CCC(=O)O)C(=O)NCCOCCOCC(=O)N[C@@H](CCC(=O)O)C(=O)N[C@@H](CO)C(=O)N[C@@H](CCCCNC(=O)CC[C@H](NC(=O)CNC(=O)CC[C@H](NC(=O)CCCCCCCCCCCCCCCCC(=O)O)C(=O)O)C(=O)O)C(N)=O)NC(=O)[C@H](CCCNC(=N)N)NC(=O)[C@H](Cc2c[nH]cn2)NC(=O)[C@H](CCC(=O)O)NC(=O)CNC(=O)[C@H](Cc2c[nH]c3ccccc23)NC(=O)[C@H](CCC(=O)O)NC(=O)[C@H](CCC(N)=O)NC(=O)[C@H](Cc2cn(C)c3ccccc23)NC1=O) [Compound 155]	< 100 nM	
Ac-EFAI[Trp(1-Me)]QEWGEHR[hCys][Sar]EA[AEEA][AEEA]K([γGlu-Gly-γGlu-C18 diacid])-NH2 (thioether 3-13; SMILES CC[C@H](C)[C@@H]1NC(=O)[C@@H](NC(=O)[C@H](Cc2ccccc2)NC(=O)[C@H](CCC(=O)O)NC(C)=O)CSCC[C@@H](C(=O)N(C)CC(=O)N[C@@H](CCC(=O)O)C(=O)N[C@@H](C)C(=O)NCCOCCOCC(=O)NCCOCCOCC(=O)N[C@@H](CCCCNC(=O)CC[C@H](NC(=O)CNC(=O)CC[C@H](NC(=O)CCCCCCCCCCCCCCCCC(=O)O)C(=O)O)C(=O)O)C(N)=O)NC(=O)[C@H](CCCNC(=N)N)NC(=O)[C@H](Cc2c[nH]cn2)NC(=O)[C@H](CCC(=O)O)NC(=O)CNC(=O)[C@H](Cc2c[nH]c3ccccc23)NC(=O)[C@H](CCC(=O)O)NC(=O)[C@H](CCC(N)=O)NC(=O)[C@H](Cc2cn(C)c3ccccc23)NC1=O) [Compound 158]	< 250 nM	
Ac-SEFAI[Trp(1-Me)]QDW[Sar]EHR[hCys][Sar]E[AEEA][AEEA]K([γGlu-Gly-γGlu-C18 diacid])-OH (thioether 4-14) [Compound 162]	< 100 nM	
Ac-SEFAI[Trp(1-Me)]QDWGEHR[hCys][Sar]EGE[AEEA][AEEA]K([γGlu-Gly-γGlu-C16 diacid])-NH2 (thioether 4-14) [Compound 160]	< 100 nM	
Ac-SEFAI[Trp(1-Me)]QDWGEHR[hCys]TEGE[AEEA][AEEA]K([γGlu-Gly-γGlu-C18 diacid])-NH2 (thioether 4-14; SMILES CC[C@H](C)[C@@H]1NC(=O)[C@@H](NC(=O)[C@H](Cc2ccccc2)NC(=O)[C@H](CCC(=O)O)NC(=O)[C@H](CO)NC(C)=O)CSCC[C@@H](C(=O)N[C@H](C(=O)N[C@@H](CCC(=O)O)C(=O)NCC(=O)N[C@@H](CCC(=O)O)C(=O)NCCOCCOCC(=O)NCCOCCOCC(=O)N[C@@H](CCCCNC(=O)CC[C@H](NC(=O)CNC(=O)CC[C@H](NC(=O)CCCCCCCCCCCCCCCCC(=O)O)C(=O)O)C(=O)O)C(N)=O)[C@@H](C)O)NC(=O)[C@H](CCCNC(=N)N)NC(=O)[C@H](Cc2c[nH]cn2)NC(=O)[C@H](CCC(=O)O)NC(=O)CNC(=O)[C@H](Cc2c[nH]c3ccccc23)NC(=O)[C@H](CC(=O)O)NC(=O)[C@H](CCC(N)=O)NC(=O)[C@H](Cc2cn(C)c3ccccc23)NC1=O) [Compound 156]	< 100 nM	
Ac-EFCI[Trp(1-Me)]QDWGEHRC[Sar]EA[AEEA][AEEA]K([γGlu-Gly-γGlu-C18 diacid])-NH2 (disulfide 3-13; SMILES CC[C@H](C)[C@@H]1NC(=O)[C@@H](NC(=O)[C@H](Cc2ccccc2)NC(=O)[C@H](CCC(=O)O)NC(C)=O)CSSC[C@@H](C(=O)N(C)CC(=O)N[C@@H](CCC(=O)O)C(=O)N[C@@H](C)C(=O)NCCOCCOCC(=O)NCCOCCOCC(=O)N[C@@H](CCCCNC(=O)CC[C@H](NC(=O)CNC(=O)CC[C@H](NC(=O)CCCCCCCCCCCCCCCCC(=O)O)C(=O)O)C(=O)O)C(N)=O)NC(=O)[C@H](CCCNC(=N)N)NC(=O)[C@H](Cc2c[nH]cn2)NC(=O)[C@H](CCC(=O)O)NC(=O)CNC(=O)[C@H](Cc2c[nH]c3ccccc23)NC(=O)[C@H](CC(=O)O)NC(=O)[C@H](CCC(N)=O)NC(=O)[C@H](Cc2cn(C)c3ccccc23)NC1=O) [Compound 145]	< 100 nM	
Ac-[Sar]CIWQDWGEHRCT-NH2 (disulfide 2-12; SMILES CC[C@H](C)[C@@H]1NC(=O)[C@@H](NC(=O)CN(C)C(C)=O)CSSC[C@@H](C(=O)N[C@H](C(N)=O)[C@@H](C)O)NC(=O)[C@H](CCCNC(=N)N)NC(=O)[C@H](Cc2c[nH]cn2)NC(=O)[C@H](CCC(=O)O)NC(=O)CNC(=O)[C@H](Cc2c[nH]c3ccccc23)NC(=O)[C@H](CC(=O)O)NC(=O)[C@H](CCC(N)=O)NC(=O)[C@H](Cc2c[nH]c3ccccc23)NC1=O) [Compound 11]	< 100 nM	
Ac-ICLWQDWGEHRCT-NH2 (disulfide 2-12; SMILES CC[C@H](C)[C@H](NC(C)=O)C(=O)N[C@H]1CSSC[C@@H](C(=O)N[C@H](C(N)=O)[C@@H](C)O)NC(=O)[C@H](CCCNC(=N)N)NC(=O)[C@H](Cc2c[nH]cn2)NC(=O)[C@H](CCC(=O)O)NC(=O)CNC(=O)[C@H](Cc2c[nH]c3ccccc23)NC(=O)[C@H](CC(=O)O)NC(=O)[C@H](CCC(N)=O)NC(=O)[C@H](Cc2c[nH]c3ccccc23)NC(=O)[C@H](CC(C)C)NC1=O) [Ac-IC(1)X…(1)T-NH2 with Leucine at position 3]		500 nM
Ac-SEFCI[Trp(1-Me)]QDWGEHRC[Sar]EGE[AEEA][AEEA][AEEA]K([γGlu-Gly-γGlu-C18 diacid])-NH2 (disulfide 4-14; SMILES CC[C@H](C)[C@@H]1NC(=O)[C@@H](NC(=O)[C@H](Cc2ccccc2)NC(=O)[C@H](CCC(=O)O)NC(=O)[C@H](CO)NC(C)=O)CSSC[C@@H](C(=O)N(C)CC(=O)N[C@@H](CCC(=O)O)C(=O)NCC(=O)N[C@@H](CCC(=O)O)C(=O)NCCOCCOCC(=O)NCCOCCOCC(=O)NCCOCCOCC(=O)N[C@@H](CCCCNC(=O)CC[C@H](NC(=O)CNC(=O)CC[C@H](NC(=O)CCCCCCCCCCCCCCCCC(=O)O)C(=O)O)C(=O)O)C(N)=O)NC(=O)[C@H](CCCNC(=N)N)NC(=O)[C@H](Cc2c[nH]cn2)NC(=O)[C@H](CCC(=O)O)NC(=O)CNC(=O)[C@H](Cc2c[nH]c3ccccc23)NC(=O)[C@H](CC(=O)O)NC(=O)[C@H](CCC(N)=O)NC(=O)[C@H](Cc2cn(C)c3ccccc23)NC1=O) [Compound 143]	< 100 nM	
